Assay results published in paper PMC11239674.
Positions count from the first letter of the chain named.

What was measured:
Test in all cases: MST
[1] = molecular target: T1, AtGRP7YtoE Y103E;Y111E;Y118E;Y131E;Y138E;Y148E;Y159E;Y167E (Arabidopsis thaliana) (UniProt Q03250); settings: 25 mM Tris-HCl pH 8.0, 150 mM NaCl (150 mM LiCl for Sc1 LiCl), 1 mM DTT, 0.1 mg/ml BSA; 20 nM Cy5-RNA; about 2 min incubation; temperature not stated; low values mean tight binding
T1 sequence: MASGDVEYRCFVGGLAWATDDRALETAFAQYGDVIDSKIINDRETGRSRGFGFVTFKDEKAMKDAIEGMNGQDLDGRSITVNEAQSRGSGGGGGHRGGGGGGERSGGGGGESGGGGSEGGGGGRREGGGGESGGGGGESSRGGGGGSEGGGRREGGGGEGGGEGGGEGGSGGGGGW

[2] = molecular target: T2, AtGRP7StoG S132G;S139G (Arabidopsis thaliana) (UniProt Q03250); settings: 25 mM Tris-HCl pH 8.0, 150 mM NaCl (150 mM LiCl for Sc1 LiCl), 1 mM DTT, 0.1 mg/ml BSA; 20 nM Cy5-RNA; about 2 min incubation; temperature not stated; low values mean tight binding
T2 sequence: T1 sequence with E103Y, E111Y, E118Y, E131Y, S132G, E138Y, S139G, E148Y, E159Y, E167Y

[3] = molecular target: T3, AtGRP7StoE S132E;S139E (Arabidopsis thaliana) (UniProt Q03250); settings: 25 mM Tris-HCl pH 8.0, 150 mM NaCl (150 mM LiCl for Sc1 LiCl), 1 mM DTT, 0.1 mg/ml BSA; 20 nM Cy5-RNA; about 2 min incubation; temperature not stated; low values mean tight binding
T3 sequence: T1 sequence with E103Y, E111Y, E118Y, E131Y, S132E, E138Y, S139E, E148Y, E159Y, E167Y

[4] = molecular target: T4, AtGRP7YtoG Y103G;Y111G;Y118G;Y131G;Y138G;Y148G;Y159G;Y167G (Arabidopsis thaliana) (UniProt Q03250); settings: 25 mM Tris-HCl pH 8.0, 150 mM NaCl (150 mM LiCl for Sc1 LiCl), 1 mM DTT, 0.1 mg/ml BSA; 20 nM Cy5-RNA; about 2 min incubation; temperature not stated; low values mean tight binding
T4 sequence: T1 sequence with E103G, E111G, E118G, E131G, E138G, E148G, E159G, E167G

BnGRP7 (Brassica napus) [5] = molecular target: T5, BnGRP7 (Brassica napus) (UniProt A0A078J5Z4); settings: 25 mM Tris-HCl pH 8.0, 150 mM NaCl (150 mM LiCl for Sc1 LiCl), 1 mM DTT, 0.1 mg/ml BSA; 20 nM Cy5-RNA; about 2 min incubation; temperature not stated; low values mean tight binding
T5 sequence: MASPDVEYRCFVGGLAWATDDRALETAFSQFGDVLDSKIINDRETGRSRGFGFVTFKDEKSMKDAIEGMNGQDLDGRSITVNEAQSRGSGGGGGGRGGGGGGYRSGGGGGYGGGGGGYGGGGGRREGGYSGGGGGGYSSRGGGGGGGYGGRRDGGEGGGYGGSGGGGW

[6] = molecular target: T6, eYFP-AtGRP7RGG (Arabidopsis thaliana) (UniProt Q03250); settings: 25 mM Tris-HCl pH 8.0, 150 mM NaCl (150 mM LiCl for Sc1 LiCl), 1 mM DTT, 0.1 mg/ml BSA; 20 nM Cy5-RNA; about 2 min incubation; temperature not stated; low values mean tight binding
T6 sequence: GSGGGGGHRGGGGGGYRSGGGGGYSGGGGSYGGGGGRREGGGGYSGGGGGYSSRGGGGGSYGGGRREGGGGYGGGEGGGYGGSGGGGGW

[7] = molecular target: T7, AtGRP7 (Arabidopsis thaliana) (UniProt Q03250); settings: 25 mM Tris-HCl pH 8.0, 150 mM NaCl (150 mM LiCl for Sc1 LiCl), 1 mM DTT, 0.1 mg/ml BSA; 20 nM Cy5-RNA; about 2 min incubation; temperature not stated; low values mean tight binding
T7 sequence: T1 sequence with E103Y, E111Y, E118Y, E131Y, E138Y, E148Y, E159Y, E167Y

[8] = molecular target: T8, AtBnGRP7 (Arabidopsis thaliana / Brassica napus chimera) (UniProt Q03250); settings: 25 mM Tris-HCl pH 8.0, 150 mM NaCl (150 mM LiCl for Sc1 LiCl), 1 mM DTT, 0.1 mg/ml BSA; 20 nM Cy5-RNA; about 2 min incubation; temperature not stated; low values mean tight binding
T8 sequence: T5 sequence with P4G, S29A, F31Y, L35I, S61A

[9] = molecular target: T9, AtGRP7short (Arabidopsis thaliana) (UniProt Q03250); settings: 25 mM Tris-HCl pH 8.0, 150 mM NaCl (150 mM LiCl for Sc1 LiCl), 1 mM DTT, 0.1 mg/ml BSA; 20 nM Cy5-RNA; about 2 min incubation; temperature not stated; low values mean tight binding
T9 sequence: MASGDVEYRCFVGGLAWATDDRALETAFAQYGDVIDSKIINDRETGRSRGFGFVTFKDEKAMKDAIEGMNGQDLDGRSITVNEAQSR

[10] = molecular target: T7, AtGRP7 (Arabidopsis thaliana); settings: 25 mM Tris-HCl pH 8.0, 150 mM NaCl (150 mM LiCl for Sc1 LiCl), 1 mM DTT, 0.1 mg/ml BSA; 20 nM Cy5-RNA; about 2 min incubation; temperature not stated; low values mean tight binding; remark: listed apart in the source
[11] = test system: eYFP-AtGRP7RGG (Arabidopsis thaliana); settings: MST: 25 mM Tris-HCl pH 8.0, 150 mM NaCl, 1 mM DTT, 0.1 mg/ml BSA; 20 nM Cy5-RNA; protein titrated from 50-75 uM; about 2 min incubation; temperature not stated
[12] = test system: AtGRP7 (Arabidopsis thaliana); settings: MST: 25 mM Tris-HCl pH 8.0, 150 mM NaCl, 1 mM DTT, 0.1 mg/ml BSA; 20 nM Cy5-RNA; protein titrated from 50-75 uM; about 2 min incubation; temperature not stated
[13] = test system: AtGRP7short (Arabidopsis thaliana); settings: MST: 25 mM Tris-HCl pH 8.0, 150 mM NaCl, 1 mM DTT, 0.1 mg/ml BSA; 20 nM Cy5-RNA; protein titrated from 50-75 uM; about 2 min incubation; temperature not stated
BnGRP7 (Brassica napus) [14] = settings: MST: 25 mM Tris-HCl pH 8.0, 150 mM NaCl, 1 mM DTT, 0.1 mg/ml BSA; 20 nM Cy5-RNA; protein titrated from 50-75 uM; about 2 min incubation; temperature not stated
[15] = test system: AtGRP7StoE (Arabidopsis thaliana); settings: MST: 25 mM Tris-HCl pH 8.0, 150 mM NaCl, 1 mM DTT, 0.1 mg/ml BSA; 20 nM Cy5-RNA; protein titrated from 50-75 uM; about 2 min incubation; temperature not stated
[16] = test system: AtGRP7YtoG (Arabidopsis thaliana); settings: MST: 25 mM Tris-HCl pH 8.0, 150 mM NaCl, 1 mM DTT, 0.1 mg/ml BSA; 20 nM Cy5-RNA; protein titrated from 50-75 uM; about 2 min incubation; temperature not stated
[17] = test system: AtBnGRP7 (Arabidopsis thaliana / Brassica napus chimera); settings: MST: 25 mM Tris-HCl pH 8.0, 150 mM NaCl, 1 mM DTT, 0.1 mg/ml BSA; 20 nM Cy5-RNA; protein titrated from 50-75 uM; about 2 min incubation; temperature not stated
[18] = test system: AtGRP7StoG (Arabidopsis thaliana); settings: MST: 25 mM Tris-HCl pH 8.0, 150 mM NaCl, 1 mM DTT, 0.1 mg/ml BSA; 20 nM Cy5-RNA; protein titrated from 50-75 uM; about 2 min incubation; temperature not stated

Substance: GGAUGGCGUCCGGUGAUGUUGAGUAUCGGUGCUUCGUUGGAGGUCUAGCAUGGGCCACUGAUGACAGAGCUCUUGAGACUGCCUUCGCUCAAUACGGCGACGUUAUUGAUUCCAAGAUCAUUAACGAUCGUGAGACUGGAAGAUCAAGGGGAUUCGGAUUCGUCACCUUCAAGGAUGAGAAAGCCAUGAAGGAUGCGAUUGAGGGAAUGAACGGACAAGAUCUCGAUGGCCGUAGCAUCACUGUUAACGAGGCUCAGUCACGAGGAAGCGGUGGCGGCGGAGGCCACCGUGGAGGUGGUGGCGGUGGAUACCGCAGCGGCGGUGGUGGAGGUUACUCCGGUGGAGGUGGUAGCUACGGAGGUGGCGGCGGUAGACGCGAGGGUGGAGGAGGAUACAGCGGCGGCGGCGGCGGUUACUCCUCAAGAGGUGGUGGUGGCGGAAGCUACGGUGGUGGAAGACGUGAGGGAGGAGGAGGAUACGGUGGUGGUGAAGGAGGAGGUUACGGAGGAAGCGGUGGUGGUGGAGGAUGGUAA [AtGRP7]
- Kd [1]: 5400 nM
- Kd [2]: 1170 nM
- Kd [3]: 536 nM
- Kd [4]: 7390 nM
- Kd (BnGRP7 (Brassica napus) [5]): 3720 nM
- Kd [6]: 1520 nM
- Kd [7]: 182 nM
- Kd [8]: 107 nM

Substance: AUUUUGUUCUGGUUCUGCUUUAGAUUUGAUGU [AtGRP7 3'UTR fragment (7-UTR-WT, 32 nt)]
- Kd [1]: 701 nM
- Kd [2]: 52 nM
- Kd [3]: 72 nM
- Kd [4]: 356 nM
- Kd [9]: 12200 nM
- Kd (BnGRP7 (Brassica napus) [5]): 17 nM
- Kd [6]: 31 nM
- Kd [7]: 158 nM
- Kd [8]: 18 nM

Substance: GCUGCGGUGUGGAAGGAGUGGUCGGGUUGCGCAGCG [Sc1 G-quadruplex RNA]
- Kd [10]: 463 nM
- Kd [7]: 6900 nM

Substance: AtGRP7 3'UTR fragment (7-UTR-WT)
- Kd [11]: 31 nM
- Kd [12]: 160 nM

Substance: miR164
- Kd [13]: 5930 nM
- Kd (BnGRP7 (Brassica napus) [14]): 21 nM
- Kd [12]: 42 nM

Substance: AtGRP7 CDS RNA
- Kd [11]: 2100 nM
- Kd [12]: 182 nM

Substance: AtCOR15A pre-mRNA
- Kd [15]: 738 nM
- Kd [16]: 3750 nM
- Kd (BnGRP7 (Brassica napus) [14]): 323 nM
- Kd [12]: 150 nM
- Kd [17]: 741 nM
- Kd [18]: 2230 nM

Substance: BnPARCL CDS RNA
- Kd [13]: 4070 nM
- Kd [12]: 99.7 nM
